Data published in article PMC8443317.

Target: recombinant human angiotensin-converting enzyme 2 (ACE2) receptor, biotinylated (human) (UniProt Q9BYF1)
Experiment: SPR

| Substance | Kd [µM] | koff [s⁻¹] | kon [M⁻¹ s⁻¹] |
| --- | --- | --- | --- |
| recombinant original SARS-CoV-2 spike S1 protein (domain or fragment) | 0.0105 |  |  |
| SARS-CoV-2 spike S1 variant D614G (domain or fragment) | 0.0422 | 0.00578 | 138000 |
